Reference: patent publication US20120164688A1 (Regeneron, published 2012)
Residue numbers refer to the chain shown, from its start.

B1: recombinant human TrkA-hFc (Fc fusion, UniProt P04629 33-423, looked up)
chain: AAPCPDACCPHGSSGLRCTRDGALDSLHHLPGAENLTELYIENQQHLQHLELRDLRGLGELRNLTIVKSGLRFVAPDAFHFTPRLSRLNLSFNALESLSWKTVQGLSLQELVLSGNPLHCSCALRWLQRWEEEGLGGVPEQKLQCHGQGPLAHMPNASCGVPTLKVQVPNASVDVGDDVLLRCQVEGRGLEQAGWILTELEQSATVMKSGGLPSLGLTLANVTSDLNRKNVTCWAENDVGRAEVSVQVNVSFPASVQLHTAVEMHHWCIPFSVDGQPAPSLRWLFNGSVLNETSFIFTEFLEPAANETVRHGCLRLNQPTHVNNGNYTLLAANPFGQASASIMAAFMDNPFEFNPEDPIPVSFSPVDTNSTSGDPVEKKDETPFGVSVAVG
notes: extracellular domain; dimeric fusion protein; also called hTrkA-hFc; not shown: Fc portion of human IgG1
B2: recombinant human p75-hFc (Fc fusion, UniProt P08138 29-250, looked up)
chain: KEACPTGLYTHSGECCKACNLGEGVAQPCGANQTVCEPCLDSVTFSDVVSATEPCKPCTECVGLQSMSAPCVEADDAVCRCAYGYYQDETTGRCEACRVCEAGSGLVFSCQDKQNTVCEECPDGTYSDEANHVDPCLPCTVCEDTERQLRECTRWADAECEEIPGRWITRSTPPEGSDSTAPSTQEPEAPPEQDLIASTVAGVVTTVMGSSQPVVTRGTTDN
notes: extracellular domain; dimeric fusion protein; also called hp75-hFc; not shown: Fc portion of human IgG1
B3: REGN472 (antibody, human IgG1)
heavy: not shown
VL: DIQMTQSPSSLSASVGDRVTITCRASQAIRNDLGWYQQKPGKAPKRLIYAAFNLQSGVPSRFSGSGSGTEFTLTISSLQPEDFATYYCQQYNRYPWTFGQGTKVEIKR
B4: REGN474 (antibody, human IgG4 S228P)
heavy: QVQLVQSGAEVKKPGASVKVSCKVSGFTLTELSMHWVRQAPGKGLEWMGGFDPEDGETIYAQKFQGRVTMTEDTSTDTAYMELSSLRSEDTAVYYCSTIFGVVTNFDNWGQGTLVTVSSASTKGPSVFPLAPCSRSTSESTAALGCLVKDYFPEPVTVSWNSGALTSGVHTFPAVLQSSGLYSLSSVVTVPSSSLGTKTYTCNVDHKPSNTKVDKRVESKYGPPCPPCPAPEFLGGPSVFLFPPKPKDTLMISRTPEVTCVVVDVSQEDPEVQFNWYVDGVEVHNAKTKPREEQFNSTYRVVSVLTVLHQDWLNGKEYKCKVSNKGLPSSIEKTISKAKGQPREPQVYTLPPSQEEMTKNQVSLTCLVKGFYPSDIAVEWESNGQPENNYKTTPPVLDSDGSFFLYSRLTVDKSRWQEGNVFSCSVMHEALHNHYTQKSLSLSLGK
VL: B3 VL
B5: REGN475 (antibody, human IgG4 S228P)
heavy: not shown
VL: B3 VL with V15A, F83L, T85S
B6: 301272-3H10-A10 (antibody)
heavy: not shown
VL: DIRMTQSPSSLSASAGDRVTITCRASQAIRNDLGWYQQKPGKAPKRLIYAAFNLQSGVPSRFSGSGSGTEFTLTISSLQPEDLASYYCQQYNRYPWTFGQGTKLEIK
notes: also called REGN261
B7: human neurotrophin-3 (NT-3) (ligand, UniProt P20783 139-257, looked up)
chain: YAEHKSHRGEYSVCDSESLWVTDKSSAIDIRGHQVTVLGEIKTGNSPVKQYFYETRCKEARPVKNGCRGIDDKHWNSQCKTSQTYVRALTSENNKLVGWRWIRIDTSCVCALSRKIGRT
notes: also called human NT-3
B8: REGN476 (antibody, human IgG4 S228P, V domains shown)
VH: EVQLVESGGGLVQPGRSLRLSCAAPGFNFDDYAMHWVRQAPGKGLEWVSGISWNSGTIGYADSVKGRFTISRDNAKNSLYLQMNSLRAEDTALYYCAKEGVWFGKLFSSYGMDVWGQGTTVTVSS
VL: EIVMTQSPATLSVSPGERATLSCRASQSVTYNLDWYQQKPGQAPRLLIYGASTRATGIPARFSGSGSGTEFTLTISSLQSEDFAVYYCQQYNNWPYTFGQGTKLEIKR
B9: REGN477 (antibody, human IgG4 S228P)
heavy: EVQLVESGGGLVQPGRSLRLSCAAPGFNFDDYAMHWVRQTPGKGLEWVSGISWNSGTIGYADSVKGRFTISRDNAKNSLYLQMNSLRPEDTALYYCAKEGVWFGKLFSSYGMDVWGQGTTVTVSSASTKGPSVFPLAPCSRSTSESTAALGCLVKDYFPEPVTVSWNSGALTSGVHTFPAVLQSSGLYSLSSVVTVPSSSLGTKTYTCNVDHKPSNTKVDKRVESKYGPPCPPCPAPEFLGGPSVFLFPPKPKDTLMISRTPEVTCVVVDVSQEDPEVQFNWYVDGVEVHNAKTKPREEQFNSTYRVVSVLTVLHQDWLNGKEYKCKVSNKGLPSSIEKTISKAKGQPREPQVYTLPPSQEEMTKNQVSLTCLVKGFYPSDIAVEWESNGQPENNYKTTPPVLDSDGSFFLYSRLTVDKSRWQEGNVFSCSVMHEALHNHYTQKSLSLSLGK
VL: EIVMTQSPATLSVSPGERATLSCRASQSVTYNLDWYQQKPGQAPRLLIFGASTRATGIPARFSGSGSGTEFTLTITSLQSEDFAVYYCQQYNNWPYTFGQGTKLEIKR
B10: human brain derived neurotrophic factor (hBDNF) (ligand, UniProt P23560 129-247, looked up)
chain: HSDPARRGELSVCDSISEWVTAADKKTAVDMSGGTVTVLEKVPVSKGQLKQYFYETKCNPMGYTKEGCRGIDKRHWNSQCRTTQSYVRALTMDSKKRIGWRFIRIDTSCVCTLTIKRGR

Columns and labels:
[1] = molecular target: B7; assay: BIACORE; 20 nM NT-3 + 500 nM agent, % NT-3 bound to TrkC-hFc chip
Method: (§1) Human TrkA-hFc (9300 RU), human TrkB-hFc (6000 RU), human TrkC-hFc (9100 RU) and human p75-hFc (7500 RU) were covalently coupled to BIACORE® CM5 chip surfaces by amine-coupling procedure. […] The binding mixture was first incubated at room temperature to reach equilibrium (about 1 hr) and then was injected over the above TrkA-hFc, TrkB-hFc, TrkC-hFc and p75-hFc surfaces.

[2] = molecular target: B7; assay: BIACORE; 20 nM NT-3 + 500 nM agent, % NT-3 bound to p75-hFc chip
Method: as §1

[3] = molecular target: B7; assay: BIACORE; 20 nM NT-3 + 500 nM agent, % NT-3 bound to TrkB-hFc chip
Method: as §1

[4] = molecular target: B7; assay: BIACORE; 20 nM NT-3 + 500 nM agent, % NT-3 bound to TrkA-hFc chip
Method: as §1

[5] = molecular target: T1, human nerve growth factor (NGF) (human, UniProt P01138 122-241); assay: BIACORE blocking; % free NGF bound to TrkA-hFc chip
T1 construct: range 122-241; biotin-labeled in OCTET and ELISA assays; also called human NGF; biotin-NGF
T1 sequence (P01138 122-241 limits assumed): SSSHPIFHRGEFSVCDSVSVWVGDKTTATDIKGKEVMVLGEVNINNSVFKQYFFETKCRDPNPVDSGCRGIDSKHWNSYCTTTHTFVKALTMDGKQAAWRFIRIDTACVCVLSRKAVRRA
Text: (§2) To identify blocking antibodies, a receptor blocking assay was designed using a BIACORE™ 3000 instrument. Recombinant human TrkA-hFc and human p75-hFc proteins were amine-coupled to a CM5 chip to a density of about 5000-6000 RU.

[6] = molecular target: T1, human nerve growth factor (NGF); assay: competition ELISA; 50 pM biotin-NGF, hp75-hFc plate
T1 sequence (P01138 122-241 limits assumed): as above
Method: (§3) Specifically, the microtiter plates were prepared by coating the plates with 0.5 μg/ml hTrkA-hFc or 1 μg/ml hp75-hFc solution in PBS buffer overnight at 4° C., followed by blocking the plates with 0.5% BSA prior to use.

[7] = molecular target: T1, human nerve growth factor (NGF); assay: BIACORE SPR; purified mAb
Method: (§4) Antibodies were captured on either a goat, anti-human or anti-mouse IgG polyclonal antibody surface created by direct amine coupling of the capture antibody to a BIACORE™ chip. […] Kinetic analysis was performed to obtain the equilibrium dissociation constant (KD) and dissociation rate constant, and the latter was used to calculate the antigen/antibody complex dissociation t_{1/2} (Table 1).

[8] = molecular target: T1, human nerve growth factor (NGF); assay: BIACORE SPR; purified mAb; remark: listed apart in the source
mouse NGF (mNGF) [9] = molecular target: T2, mouse NGF (mNGF) (mouse, UniProt P01139 122-241, limits assumed); assay: BIACORE SPR; purified mAb
T2 sequence (P01139 122-241 limits assumed): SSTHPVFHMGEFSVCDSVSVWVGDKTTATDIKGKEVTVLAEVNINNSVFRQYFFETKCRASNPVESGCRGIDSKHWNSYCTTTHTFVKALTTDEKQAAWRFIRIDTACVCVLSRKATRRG

rat NGF (rNGF) [10] = molecular target: T3, rat NGF (rNGF) (rat, UniProt P25427 122-241, limits assumed); assay: BIACORE SPR; purified mAb
T3 sequence (P25427 122-241 limits assumed): as the sequence (P01139 122-241 limits assumed) above, with A40G, R50K, S61P, E94D, T117A counted along it

[11] = molecular target: T1, human nerve growth factor (NGF); assay: competition ELISA; 50 pM biotin-NGF, hTrkA-hFc plate
Method: as §3

[12] = molecular target: T1, human nerve growth factor (NGF); assay: cell-based or functional assay
[13] = molecular target: B7; assay: BIACORE SPR
[14] = molecular target: T1, human nerve growth factor (NGF); assay: BIACORE blocking; % free NGF bound to p75-hFc chip
Text: as §2

[15] = molecular target: B7; assay: OCTET solution competition against biotin-NGF sensor
Method: (§5) Changes in the thickness of the biological layer were measured after incubation. The binding was normalized as a percentage of binding relative to the binding of antibody in absence of competitor.

[16] = molecular target: T1, human nerve growth factor (NGF); assay: cell-based or functional assay; remark: listed apart in the source
[17] = molecular target: B7; assay: BIACORE SPR; mAb captured, NT-3 injected
Method: (§6) Briefly, goat anti-human IgG polyclonal antibody was chemically linked to a CM5 chip. […] Both association and dissociation phases were monitored and data were analyzed.

[18] = molecular target: T1, human nerve growth factor (NGF); assay: BIACORE SPR; complex dissociation half-life
Method: as §4

[19] = molecular target: T1, human nerve growth factor (NGF); assay: BIACORE SPR
Method: as §4
(§7) The binding affinities of the antibodies to both mNGF and rNGF were determined as described above.

mouse NGF (mNGF) [20] = molecular target: T2, mouse NGF (mNGF); assay: BIACORE SPR
Method: as §4, §7

rat NGF (rNGF) [21] = molecular target: T3, rat NGF (rNGF); assay: BIACORE SPR
Method: as §4, §7

[22] = molecular target: T1, human nerve growth factor (NGF); assay: BIACORE SPR; mAb captured, 20 nM NGF
Method: as §6

[23] = molecular target: T1, human nerve growth factor (NGF); assay: BIACORE SPR; mAb captured, human NGF injected
Method: as §4

REGN475 = molecular target: B5; assay: OCTET; % REGN475 binding to biotin-NGF sensor, no competitor (reference)
Method: as §5

[24] = molecular target: T4, humanized anti-human NGF monoclonal antibody E3 ("RN624") (tanezumab; CAS Registry No. 880266-57-9); assay: OCTET; % RN624 binding to biotin-NGF sensor, no competitor (reference)
T4 construct: control antibody; also called Control (RN624); Control mAb (RN624)
Method: as §5

B1
% binding [1]: 3%
% binding [2]: 7%
% binding [3]: 5%
% binding [4]: 21%

B2
% binding [1]: 2%
% binding [2]: 4%
% binding [3]: 2%
% binding [4]: 14%

B3
% Binding TrkA-hFc [5]: 4%
IC50 [6]: 12 pM
Kd [7]: 0.41 pM
t1/2 [7]: 30 h
Kd [8]: 0.41 pM
Kd (mouse NGF (mNGF) [9]): 0.61 pM
Kd (rat NGF (rNGF) [10]): 3.96 pM
IC50 [11]: 12 pM
IC50 (pM), PC12 SRE-luciferase [12]: 4.5 pM
binding result [13]: no binding (tested: 1.25 nM to 40 nM)
% Binding p75-hFc [14]: 7%

B4
% Binding TrkA-hFc [5]: 6%
IC50 [6]: 6.3 pM
Kd [7]: 0.41 pM
t1/2 [7]: 31 h
Kd [8]: 0.41 pM
Kd (mouse NGF (mNGF) [9]): 0.43 pM
Kd (rat NGF (rNGF) [10]): 3.42 pM
IC50 [11]: 8.1 pM
IC50 (pM), PC12 SRE-luciferase [12]: 6.6 pM
binding result [13]: no binding (tested: 1.25 nM to 40 nM)
% Binding p75-hFc [14]: 9%

B5
% Binding TrkA-hFc [5]: 6%
IC50 [6]: 22 pM
% binding [1]: 101%
Kd [7]: 0.18 pM
t1/2 [7]: 57 h
Kd [8]: 0.18 pM
Kd (mouse NGF (mNGF) [9]): 0.36 pM
Kd (rat NGF (rNGF) [10]): 0.93 pM
IC50 [11]: 20 pM
binding result [15]: no binding (tested: 0 to 4 µM)
% binding [3]: 99%
IC50 (pM), PC12 SRE-luciferase [12]: 9.6 pM
% binding [4]: 90%
% Binding p75-hFc [14]: 10%

B6
MG87 IC50 [16]: < 186 pM
PC12 IC50 [16]: 9 pM
binding result [17]: no binding (tested: 20 nM)
% Binding TrkA-hFc [5]: 1%
t1/2 [18]: 25.2 h
Kd [19]: 0.1 pM
Kd (mouse NGF (mNGF) [20]): 0.2 pM
Kd (rat NGF (rNGF) [21]): 0.6 pM
Kd [22]: 0.1 pM
Kd [23]: 0.1 pM
% Binding p75-hFc [14]: 2%

B7
REGN475 % Binding (REGN475): 100%
RN624 % Binding [24]: 100%

B8
% Binding TrkA-hFc [5]: 6%
IC50 [6]: 61 pM
Kd [7]: 8.91 pM
t1/2 [7]: 4 h
Kd [8]: 8.91 pM
Kd (mouse NGF (mNGF) [9]): 115 pM
Kd (rat NGF (rNGF) [10]): 155 pM
IC50 [11]: 65 pM
binding result [13]: no binding (tested: 1.25 nM to 40 nM)
% Binding p75-hFc [14]: 13%

B9
% Binding TrkA-hFc [5]: 9%
IC50 [6]: 62 pM
Kd [7]: 7.98 pM
t1/2 [7]: 4 h
Kd [8]: 7.98 pM
Kd (mouse NGF (mNGF) [9]): 133 pM
Kd (rat NGF (rNGF) [10]): 164 pM
IC50 [11]: 65 pM
binding result [13]: no binding (tested: 1.25 nM to 40 nM)
% Binding p75-hFc [14]: 13%

B10
REGN475 % Binding (REGN475): 100%
RN624 % Binding [24]: 100%
